Measurements taken from IntAct's records for PubMed 17174311.

B1: Serine/threonine-protein kinase PLK4 (Mus musculus), Q64702 (parent)
chain: MAACIGERIEDFKVGNLLGKGSFAGVYRAESIHTGLEVAIKMIDKKAMYKAGMVQRVQNEVKIHCQLKHPSVLELYNYFEDNNYVYLVLEMCHNGEMNRYLKNRMKPFSEREARHFMHQIITGMLYLHSHGILHRDLTLSNILLTRNMNIKIADFGLATQLNMPHEKHYTLCGTPNYISPEIATRSAHGLESDIWSLGCMFYTLLIGRPPFDTDTVKNTLNKVVLADYEMPAFLSREAQDLIHQLLRRNPADRLSLSSVLDHPFMSRNPSPKSKDVGTVEDSMDSGHATLSTTITASSGTSLSGSLLDRRLLVGQPLPNKITVFQKNKNSSDFSSGDGSNFCTQWGNPEQEANSRGRGRVIEDAEERPHSRYLRRAHSSDRASPSNQSRAKTYSVERCHSVEMLSKPRRSLDENQHSSNHHCLGKTPFPFADQTPQMEMVQQWFGNLQMNAHLGETNEHHTVSPNRDFQDYPDLQDTLRNAWTDTRASKNADTSANVHAVKQLSAMKYMSAHHHKPEVMPQEPGLHPHSEQSKNRSMESTLGYQKPTLRSITSPLIAHRLKPIRQKTKKAVVSILDSEEVCVELLRECASEGYVKEVLQISSDGTMITVYYPNDGRGFPLADRPPLPTDNISRYSFDNLPEKYWRKYQYASRFIQLVRSKTPKITYFTRYAKCILMENSPGADFEVWFYDGAKIHKTENLIHIIEKTGISYNLKNENEVTSLKEEVKVYMDHANEGHRICLSLESVISEEEKRSRGSSFFPIIVGRKPGNTSSPKALSAPPVDPSCCKGEQASASRLSVNSAAFPTQSPGLSPSTVTVEGLGHTATATGTGVSSSLPKSAQLLKSVFVKNVGWATQLTSGAVWVQFNDGSQLVVQAGVSSISYTSPDGQTTRYGENEKLPEYIKQKLQCLSSILLMFSNPTPNFQ

Variants of: B1
Conditions: with MBP

effect of a mutation on the interaction	Variant
disrupting interaction	D154N

Variants of: B1
Conditions: with ccnb3_human CCNB3, Q8WWL7
Chain of ccnb3_human CCNB3, Q8WWL7 (Q8WWL7 whole entry): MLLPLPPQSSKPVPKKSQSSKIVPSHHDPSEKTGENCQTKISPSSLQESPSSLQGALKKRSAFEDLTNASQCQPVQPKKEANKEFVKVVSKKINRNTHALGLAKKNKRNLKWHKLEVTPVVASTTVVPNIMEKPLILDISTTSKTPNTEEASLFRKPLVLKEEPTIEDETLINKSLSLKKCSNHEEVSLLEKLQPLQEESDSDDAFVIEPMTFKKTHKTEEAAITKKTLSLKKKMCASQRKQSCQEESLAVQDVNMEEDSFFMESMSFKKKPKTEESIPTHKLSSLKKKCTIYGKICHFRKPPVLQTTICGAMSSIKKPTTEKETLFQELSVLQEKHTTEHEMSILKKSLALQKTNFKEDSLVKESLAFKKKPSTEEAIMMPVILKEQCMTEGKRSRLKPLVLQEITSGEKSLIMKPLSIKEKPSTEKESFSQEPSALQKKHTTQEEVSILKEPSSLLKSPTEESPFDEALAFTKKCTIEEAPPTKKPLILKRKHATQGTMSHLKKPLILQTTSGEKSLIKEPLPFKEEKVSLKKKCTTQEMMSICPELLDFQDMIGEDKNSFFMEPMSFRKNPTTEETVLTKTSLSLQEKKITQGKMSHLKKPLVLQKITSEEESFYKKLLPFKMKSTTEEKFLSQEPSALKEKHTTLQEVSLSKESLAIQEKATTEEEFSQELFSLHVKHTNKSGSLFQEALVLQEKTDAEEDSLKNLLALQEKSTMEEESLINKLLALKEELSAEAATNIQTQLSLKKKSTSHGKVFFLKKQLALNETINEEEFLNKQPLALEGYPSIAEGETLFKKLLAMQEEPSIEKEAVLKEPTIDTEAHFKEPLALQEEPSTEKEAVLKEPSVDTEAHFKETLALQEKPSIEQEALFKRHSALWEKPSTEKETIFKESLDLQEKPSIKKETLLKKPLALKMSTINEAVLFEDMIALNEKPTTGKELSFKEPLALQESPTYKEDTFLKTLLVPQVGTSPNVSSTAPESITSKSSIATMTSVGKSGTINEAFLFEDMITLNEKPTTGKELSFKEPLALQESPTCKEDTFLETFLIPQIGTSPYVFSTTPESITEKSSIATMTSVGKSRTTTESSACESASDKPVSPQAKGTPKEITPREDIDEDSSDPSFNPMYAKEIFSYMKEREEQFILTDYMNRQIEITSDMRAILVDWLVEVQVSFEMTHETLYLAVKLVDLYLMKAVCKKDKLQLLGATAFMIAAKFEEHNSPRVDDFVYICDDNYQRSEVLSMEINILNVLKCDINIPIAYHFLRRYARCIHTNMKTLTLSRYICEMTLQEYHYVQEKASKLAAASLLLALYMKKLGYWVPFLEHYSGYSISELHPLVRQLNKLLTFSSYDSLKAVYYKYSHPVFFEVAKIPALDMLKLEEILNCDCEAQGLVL

effect of a mutation on the interaction	Variant
disrupting interaction	D154N
